{"source": "patent US12241099B2", "about": "“Peptide therapeutics for treating Alzheimer's disease and related conditions” (The Board of Regents of the University of Oklahoma, priority 2018, dated 2025)", "key": {"[1]": {"target": "T1, Aβ1-42 (Homo sapiens, UniProt P05067)", "T1 sequence (P05067 672-713 limits assumed)": "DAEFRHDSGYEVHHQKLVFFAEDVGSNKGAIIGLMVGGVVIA", "test": "ELISA binding of Aβ1-42 to plate-coated neutrophil proteins and derived peptides", "conditions": "for binding of Aβ1-42: 150 nM Aβ1-42, plate coated with protein/peptide at 5 μg/ml, no protease inhibitor; for binding of Aβ1-42 on addition of antiproteases: 1 mM PMSF (CAP37, NE) or 125 μM chymostatin (CG)", "description": "CAP37, NE, and CG were purified from human neutrophils and purchased from Athens Research and Technology. BSA was from Sigma Aldrich. CAP37-derived peptides were synthesized by CS Bio Co with a purity >95%. Maxisorp plates from Nunc were coated with 100 μl neutrophil protein, peptide, or BSA diluted at 5 μg/ml in PBS with or without 1 mM PMSF purchased from Sigma Aldrich (for experiments with CAP37, NE, and BSA) or ±125 μM chymostatin purchased from Santa Cruz (for experiments with CG and BSA). Plate coating was done at room temperature for 2 hours with shaking and then at 4° C. overnight. Plates were washed three times in PBST (PBS+0.05% tween), then blocked with 3% BSA in PBST for 1 hour at room temperature with shaking. Plates were washed 3× in PBST, and 150 nM Aβ1-42 (purchased from Bachem and reconstituted in 1 mM NaOH) was added in 0.1% BSA in PBST and incubated 70 minutes at 37° C. Plates were then washed 4 times with PBST and monoclonal mouse anti-amyloid precursor protein/amyloid beta antibody, purchased from Cell Signaling Technology was added at a 1:500 dilution in 1% BSA in PBST and incubated for 1 hour at room temperature with shaking. Plates were washed 4× in PBST and donkey anti mouse HRP-conjugated secondary antibody from Jackson ImmunoResearch Laboratories was added at 1:10,000 in PBST and incubated 1 hour at room temperature with shaking, then washed 4 times in PBST. […] Sulfuric acid (5N) was added to each well to stop the reaction, and the absorbance at 492 nm was read on a Biotek Synergy II plate reader."}, "[2]": {"target": "T1, Aβ1-42", "test": "Amyloid Beta (1-42) Thioflavin T fibrillation (aggregation) assay", "format": "biochemical", "design": "used to monitor the formation of Aβ1-42 peptide fibrils; purchased Anaspec", "conditions": "for inhibition of Aβ1-42 fibrillation (in words): increasing concentrations of peptide, Rfu; for molar ratio inhibitor/Aβ1-42 corresponding to IC50 of fibrillation: ratio at IC50", "description": "The Amyloid Beta (1-42) Thioflavin T Aggregation Kit was purchased from Anaspec and used to monitor the formation of Aβ1-42 peptide fibrils, according to the manufacturer's instructions, with some modifications. Thioflavin T dye was diluted to 250 μM in fibrillation buffer A and kept in the dark until use. […] Neutrophil proteins were tested in the absence and presence of protease inhibitors. […] Chymostatin was dissolved in DMSO and used at 125 μM final concentration in reactions with CG. Reactions were pipetted up and down twice in the wells with a multichannel pipette to ensure mixing, and fluorescence (ΔEX=440 nm, ΔEm=485 nm) was read every 5 minutes for 3 hours on a BioTek Synergy 2 plate reader with Gen 5 software, with a sensitivity set at 65."}, "[3]": {"tested_on": "mouse neuroblastoma cell line Neuro-2a", "test": "Neurotoxicity assay of Aβ1-42 fibrils/oligomers (trypan blue cell death)", "format": "cell-based", "conditions": "for effect on Aβ1-42 oligomer toxicity: oligomers formed 15 min in presence of increasing concentrations; for effect on Aβ1-42 oligomer toxicity / effect on toxicity of Aβ1-42 fibrils: 18 μM Aβ1-42 on cells, 24 hours; for effect on toxicity of Aβ1-42 fibrils: protein at IC50 of fibrillation pre-incubated with Aβ1-42 24 hours in fibrillation conditions; for concentration at which significant inhibition of oligomer toxicity starts: tested at 0.5, 1, 2 and 4-fold the fibrillation IC50", "description": "A mouse neuroblastoma cell line Neuro-2a from ATCC was used for these experiments. Cells were grown and seeded in 96 well plates at 20,000 cells per well in complete medium (MEM α, nucleosides, no phenol red from Gibco, with 10% heat inactivated fetal bovine serum from Gibco, and penicillin/streptomycin from Lonza). At 24 hours after seeding, cells were washed with warmed MEM α, and then incubated in 90 μl MEM α+N2 Supplements+20 μl test sample (Aβ1-42 prepared as described below). Cells were incubated another 24 hours at 37° C., and then dislodged by pipetting up and down vigorously. 10 μl of cells were added to 10 μl trypan blue dye (0.4% solution) from BioRad, mixed and counted in a BioRad TC20 cell counter. The percent of living and dead cells was recorded for each well. In the case of the water and Triton X100 controls, 20 μl MEM α+N2 Supplements was added instead of the test sample and, just before counting the cells, 20 μl of medium was removed and replaced with 20 μl water or Triton X100 at a final concentration of 0.1%.\nMonomeric Aβ1-42 (hexafluoroisopropanol treated Aβ1-42) from Bachem was reconstituted at 5 mM in anhydrous DMSO. Untreated Aβ1-42 from CS Bio was also used in these experiments. It was first treated with 1 mM in hexafluoroisopropanol from Sigma Aldrich, incubated 30 min at room temperature, and left open to dry in the fume hood overnight. It was then vacuum desiccated for 1 hour at room temperature. Dry films of Aβ1-42 were stored at −20° C. until use to keep it under a monomeric form. Aβ1-42 from CS Bio was also reconstituted in anhydrous DMSO at 5 mM before use.\nTo prepare the fibril and oligomer test samples, monomeric Aβ1-42 was placed under conditions favoring either formation of fibrils or oligomers. To form fibrils, 100 μM Aβ1-42 was added to Anaspec fibrillation buffer A±neutrophil protein, and incubated at 37° C. 24 hours before addition to the cells at a final concentration of 18 μM. Neutrophil proteins were used at Aβ/Protein ratios that led to 50% inhibition of fibrillation (IC50), previously determined for each protein in the fibrillation assay. To form oligomers, MEM α+N2 Supplements was used instead of the fibrillation buffer A±increasing concentrations of neutrophil protein or CAP37-derived peptide. Each mixture was then added to a tube containing freshly prepared Aβ1-42 in DMSO at a final concentration of 100 μM, and incubated 15 min at room temperature. These test samples were then tested on the cells at a final concentration of 18 μM.\nOligomers were formed by incubating 100 μM Aβ1-42 in MEMα+N2 Supplements at 4° C. for 3 days. […] Finally, these oligomers were added to neurons at a final concentration of 18 μM, and percent cell death was measured at 24 h."}}, "note": "Residues, ends and D or L forms follow the SMILES beside them. No end group written: not given here."}
{"molecule": "95-122 5RMP: 95-122 with two AEEA mini-PEG molecules and 4 arginines at the N-terminal end and one arginine at the C-terminal end (RRRRLDREANLTSSVTILPLPLQNATVEAGTRR; also: two AEEA mini-PEG molecules, place not given here)", "values": [{"measurement": "binding of Aβ1-42", "setting": "[1]", "result": "does not interact"}, {"measurement": "inhibition of Aβ1-42 fibrillation (in words)", "setting": "[2]", "result": "did not inhibit fibrillation"}]}
{"molecule": "95-122: wild-type CAP37-derived peptide 95-122 (LDREANLTSSVTILPLPLQNATVEAGTR)", "values": [{"measurement": "binding of Aβ1-42", "setting": "[1]", "result": "did not bind"}]}
{"molecule": "CSCC[C@H](NC(=O)[C@H](CO)NC(=O)[C@@H](NC(=O)[C@H](CCCNC(=N)N)NC(=O)CNC(=O)[C@H](Cc1c[nH]c2ccccc12)NC(=O)CNC(=O)[C@H](C)NC(=O)[C@@H](NC(=O)[C@@H](NC(=O)[C@H](CS)NC(=O)[C@H](CC(C)C)NC(=O)[C@@H](NC(=O)CN)[C@@H](C)O)[C@@H](C)O)C(C)C)C(C)C)C(=O)N[C@@H](CCCNC(=N)N)C(=O)N[C@@H](CCCNC(=N)N)C(=O)NCC(=O)N[C@H](C(=O)N[C@@H](CCCNC(=N)N)C(=O)N[C@H](C(=O)N[C@@H](CC(C)C)C(=O)N[C@@H](CCCNC(=N)N)C(=O)N[C@@H](CCC(=O)O)C(=O)N[C@H](C(=O)N[C@@H](CCC(N)=O)C(=O)N[C@@H](CC(C)C)C(=O)O)C(C)C)[C@@H](C)O)[C@@H](C)O", "note": "[CG119-144 D137R] (H-GTLCTVAGWGRVSMRRGTRTLREVQL-OH; N-terminus and C-terminus assumed)", "values": [{"measurement": "binding of Aβ1-42", "setting": "[1]", "result": "increased the binding"}, {"measurement": "effect on Aβ1-42 oligomer toxicity", "setting": "[3]", "result": "significantly decrease"}, {"measurement": "effect on neurotoxicity of preformed Aβ1-42 oligomers", "setting": "[3]; oligomers formed first (3 days, 4° C.), then incubated with peptide at 2×IC50 for 3 days, 18 μM on neurons, cell death at 24 h", "result": "significantly reversed"}, {"measurement": "inhibition of Aβ1-42 fibrillation (in words)", "setting": "[2]", "result": "inhibitory effects"}, {"measurement": "molar ratio inhibitor/Aβ1-42 corresponding to IC50 of fibrillation", "setting": "[2]", "result": "1/3"}]}
{"molecule": "CG119-144 ΔR129V130: mutant CG-derived peptide, CG119-144 with positively charged R129 (and V130) deleted (GTLCTVAGWGSMRRGTDTLREVQL)", "values": [{"measurement": "binding of Aβ1-42", "setting": "[1]", "result": "abolished the binding"}, {"measurement": "inhibition of Aβ1-42 fibrillation (in words)", "setting": "[2]", "result": "no inhibitory effect"}]}
{"molecule": "CG: cathepsin G, full-length, purified from human neutrophils", "values": [{"measurement": "binding of Aβ1-42", "setting": "[1]", "result": "stronger"}, {"measurement": "binding of Aβ1-42 on addition of antiproteases", "setting": "[1]", "result": "not significantly changed"}, {"measurement": "effect on Aβ1-42 oligomer toxicity", "setting": "[3]", "result": "significantly inhibited"}, {"measurement": "effect on toxicity of Aβ1-42 fibrils", "setting": "[3]", "result": "significant inhibition"}, {"measurement": "concentration at which significant inhibition of oligomer toxicity starts", "setting": "[3]", "result": 0.5, "unit": "×IC50"}]}
{"molecule": "GTLCTVAGWGRVSMRRGTDTLREVQL (Completely synthesized in the lab. Amino acids 119-144 of Cathepsin G protein.) [CG119-144]", "values": [{"measurement": "binding of Aβ1-42", "setting": "[1]", "result": "Highest levels"}, {"measurement": "inhibition of Aβ1-42 fibrillation (in words)", "setting": "[2]", "result": "no inhibitory effect"}]}
{"molecule": "GTLCTVAGWGRVSMRRGTDTLRPRVQL (Completely synthesized in the lab. Peptide CG119-144.) [CG119-144 E141PR]", "values": [{"measurement": "binding of Aβ1-42", "setting": "[1]", "result": "increased the binding"}, {"measurement": "inhibition of Aβ1-42 fibrillation (in words)", "setting": "[2]", "result": "inhibitory effects"}]}
{"molecule": "GTRCQVAGWGSQRSGGRLSRFPRFVNV (Completely synthesized in the lab. Amino acids 120-146 of CAP37 protein.) [120-146 QR, wild-type CAP37-derived peptide, amino acids 120-146 of CAP37 protein]", "values": [{"measurement": "binding of Aβ1-42", "setting": "[1]", "result": "binds"}]}
{"molecule": "NE: neutrophil elastase, full-length, purified from human neutrophils", "values": [{"measurement": "binding of Aβ1-42", "setting": "[1]", "result": "almost undetectable"}, {"measurement": "binding of Aβ1-42 on addition of antiproteases", "setting": "[1]", "result": "significantly increased"}, {"measurement": "effect on Aβ1-42 oligomer toxicity", "setting": "[3]", "result": "significantly inhibited"}, {"measurement": "effect on toxicity of Aβ1-42 fibrils", "setting": "[3]", "result": "significant inhibition"}, {"measurement": "concentration at which significant inhibition of oligomer toxicity starts", "setting": "[3]", "result": 2, "unit": "×IC50"}]}
{"molecule": "NQGRHFCGGALIHARFVMTAASCFQ (Completely synthesized in the lab. Amino acids 20-44 of CAP37 protein.) [20-44 CC, wild-type CAP37-derived peptide, amino acids 20-44 of CAP37 protein]", "values": [{"measurement": "binding of Aβ1-42", "setting": "[1]", "result": "binds"}]}
{"molecule": "NQGRHFSGGALIHARFVMTAASCFQ (Completely synthesized in the lab. Peptide CAP3720-44C26S.) [20-44 SC, mutant CAP37-derived peptide 20-44]", "values": [{"measurement": "binding of Aβ1-42", "setting": "[1]", "result": "binds"}]}
{"molecule": "CAP37: cationic antimicrobial protein of molecular weight 37 KDa, full-length, purified from human neutrophils (protein) IVGGRKARPRQFPFLASIQNQGRHFCGGALIHARFVMTAASCFQSQNPGVSTVVLGAYDLRRRERQSRQTFSISSMSENGYDPQQNLNDLMLLQLDREANLTSSVTILPLPLQNATVEAGTRCQVAGWGSQRSGGRLSRFPRFVNVTVTPEDQCRPNNVCTGVLTRRGGICNGDGGTPLVCEGLAHGVASFSLGPCGRGPDFFTRVALFRDWIDGVLNNPGP", "values": [{"measurement": "binding of Aβ1-42", "setting": "[1]", "result": "stronger"}, {"measurement": "binding of Aβ1-42 on addition of antiproteases", "setting": "[1]", "result": "not significantly changed"}, {"measurement": "effect on Aβ1-42 oligomer toxicity", "setting": "[3]", "result": "does not inhibit"}, {"measurement": "effect on toxicity of Aβ1-42 fibrils", "setting": "[3]", "result": "no effect"}, {"measurement": "molar ratio inhibitor/Aβ1-42 corresponding to IC50 of fibrillation", "setting": "[2]", "result": "1/11"}]}
